{
  "source": "paper PMC7641127",
  "about": "“MCL1 binds and negatively regulates the transcriptional function of tumor suppressor p73” (Cell Death & Disease, 2020)",
  "key": {"[1]": {"biological_target": "recombinant MCL1 (human) (UniProt Q07820)", "assay": "fluorescence polarisation; direct FPA: recombinant MCL1 with FITC-peptide, 30 min, 1× PBS pH 7.4; limit of detection of the probe 5 nM"}, "[2]": {"biological_target": "recombinant MCL1 (human) (UniProt Q07820)", "assay": "fluorescence polarisation; competitive FPA: 50 nM recombinant MCL1, 10 nM F-BAK, titration of unlabeled p73 peptide or p73DBD, 1× PBS pH 7.4"}, "[3]": {"biological_target": "recombinant p73 DBD-TD (amino acids 112–398) (human) (UniProt O15350)", "sequence (O15350 112-398)": "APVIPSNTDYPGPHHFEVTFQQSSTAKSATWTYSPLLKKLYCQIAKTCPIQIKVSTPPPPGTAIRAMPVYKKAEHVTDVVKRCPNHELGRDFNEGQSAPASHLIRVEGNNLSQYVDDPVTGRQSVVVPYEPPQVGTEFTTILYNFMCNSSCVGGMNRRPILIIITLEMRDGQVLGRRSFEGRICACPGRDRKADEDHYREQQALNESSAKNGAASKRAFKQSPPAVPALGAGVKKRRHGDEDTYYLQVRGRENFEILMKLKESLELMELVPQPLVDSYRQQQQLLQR"}},
  "data": [
    {"substance": "N-terminally labeled FITC-p73_(23mer) peptide", "values": [
      {"measurement": "Kd", "setting": "[1]", "value": "< 5", "unit": "nM"}
    ]},
    {"substance": "p73_(23mer) peptide (23 amino acids, from the p73 tetramerization domain), unlabeled", "values": [
      {"measurement": "IC50", "setting": "[2]", "value": 982, "unit": "nM"}
    ]},
    {"substance": "recombinant MCL1 (from UniProt Q07820 1-350) (natural protein)", "values": [
      {"measurement": "decrease in EMSA: binding of 10 μM p73 (DBD-TD) to 1 μM FITC-GADD45 DNA on titration of recombinant MCL1 (10–200 μM), free probe quantified", "setting": "[3]", "value": 27, "unit": "%"}
    ]}
  ]
}
